Source: PMC10164081 (Structure (London, England : 1993), 2023)
Where no end group is shown, it is not given here.

T1: purified Ric-8A (rat, UniProt Q80ZG1 1-530)
T1 sequence (looked up): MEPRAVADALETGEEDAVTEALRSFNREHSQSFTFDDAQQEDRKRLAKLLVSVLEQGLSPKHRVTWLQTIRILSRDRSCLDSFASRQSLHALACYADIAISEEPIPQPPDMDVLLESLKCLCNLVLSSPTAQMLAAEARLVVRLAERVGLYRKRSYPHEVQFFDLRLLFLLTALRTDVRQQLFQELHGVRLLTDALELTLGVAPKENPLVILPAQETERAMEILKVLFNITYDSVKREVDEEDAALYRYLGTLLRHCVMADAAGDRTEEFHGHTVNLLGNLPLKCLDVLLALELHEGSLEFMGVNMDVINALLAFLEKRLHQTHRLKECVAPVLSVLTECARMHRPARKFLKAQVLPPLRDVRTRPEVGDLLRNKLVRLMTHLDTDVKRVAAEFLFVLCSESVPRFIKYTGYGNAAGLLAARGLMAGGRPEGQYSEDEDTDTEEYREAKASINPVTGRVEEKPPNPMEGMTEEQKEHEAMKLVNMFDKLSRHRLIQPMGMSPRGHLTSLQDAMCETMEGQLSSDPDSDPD

B1: phosphorylated Ric-8B (natural protein, mouse, UniProt Q80XE1-1 1-560, looked up)
chain: MDEERALYIVRAGEAGAIERVLRDYSDKHRATFKFESADEDKRKKLCEGIFKVLVKEVPTTCQVSCLEVLRILSRDKKILVPVTTKENMQILLRLAKLHESDDSLEKVSEFPVIVESLKCLCNIVFNSQMAQQLSLELNLAAKLCNLLRKCKDRKFINDIKCFDLRLLFVLSLLHTDIRSQLRYELQGLPLLTQILESAFSIKWTDEYESAIDHNGPPLSPQETDCAIEALKALFNVTVDSWKVHKESDSHQFRVMAAVLRHCLLIVGPTEDKTEELHSNAVNLLSNVPVSCLDVLICPLTHEETAQEAATLDELPSDKTTEKDTALKNSTMVYNGMNMEAIHVLLNFMEKRIDKGSSYREGLTPVLSLLTECSRAHRNIRKFLKDQVLPPLRDVTNRPEVGSTVRNKLVRLMTHVDLGVKQIAAEFLFVLCKERVDSLLKYTGYGNAAGLLAARGLLAGGRGDNWYSEDEDTDTEEYKNAKPNINLITGHLEEPMPNPIDEMTEEQKEYEAMKLVNMLDKLSREELLKPMGLKPDGTITPLEEALSQYSVIEETSSDTD
modifications: phosphoserine at 468, phosphothreonine at 473, and additional positions (Table S1)
B2: Gα13 C-term amidated peptide (peptide)
peptide: RDVKDTILHDNLKQLMLQ-NH2

Tests used:
[1] = target: Gαolf/i1 SwII chimeric sensor (human); experiment: cell-based or functional assay
[2] = target: Gαolf/13 SwII chimeric sensor (human); experiment: cell-based or functional assay
[3] = target: T1, purified Ric-8A; experiment: differential scanning fluorimetry

| Binder | folding of the Switch II chimeric Gαolf-RLuc sensor (luminescence) by Ric-8B [1] | folding of the Switch II chimeric Gαolf-RLuc sensor (luminescence) by Ric-8B [2] [% decrease] | maximal thermal shift (ΔTm) [3] [°C] |
| --- | --- | --- | --- |
| B1 | 88 % of Gαolf | 50 | – |
| B2 | – | – | 3.6 |
